Test results published in paper doi:10.1101/2024.01.29.577855.

Target: recombinant yeast TBC-DEG (TBCD, TBCE, Arl2) (yeast) (UniProt P40987)
Test: SEC

Sequence of recombinant yeast TBC-DEG (TBCD, TBCE, Arl2) (yeast) (P40987 whole entry, chain 1 of 3): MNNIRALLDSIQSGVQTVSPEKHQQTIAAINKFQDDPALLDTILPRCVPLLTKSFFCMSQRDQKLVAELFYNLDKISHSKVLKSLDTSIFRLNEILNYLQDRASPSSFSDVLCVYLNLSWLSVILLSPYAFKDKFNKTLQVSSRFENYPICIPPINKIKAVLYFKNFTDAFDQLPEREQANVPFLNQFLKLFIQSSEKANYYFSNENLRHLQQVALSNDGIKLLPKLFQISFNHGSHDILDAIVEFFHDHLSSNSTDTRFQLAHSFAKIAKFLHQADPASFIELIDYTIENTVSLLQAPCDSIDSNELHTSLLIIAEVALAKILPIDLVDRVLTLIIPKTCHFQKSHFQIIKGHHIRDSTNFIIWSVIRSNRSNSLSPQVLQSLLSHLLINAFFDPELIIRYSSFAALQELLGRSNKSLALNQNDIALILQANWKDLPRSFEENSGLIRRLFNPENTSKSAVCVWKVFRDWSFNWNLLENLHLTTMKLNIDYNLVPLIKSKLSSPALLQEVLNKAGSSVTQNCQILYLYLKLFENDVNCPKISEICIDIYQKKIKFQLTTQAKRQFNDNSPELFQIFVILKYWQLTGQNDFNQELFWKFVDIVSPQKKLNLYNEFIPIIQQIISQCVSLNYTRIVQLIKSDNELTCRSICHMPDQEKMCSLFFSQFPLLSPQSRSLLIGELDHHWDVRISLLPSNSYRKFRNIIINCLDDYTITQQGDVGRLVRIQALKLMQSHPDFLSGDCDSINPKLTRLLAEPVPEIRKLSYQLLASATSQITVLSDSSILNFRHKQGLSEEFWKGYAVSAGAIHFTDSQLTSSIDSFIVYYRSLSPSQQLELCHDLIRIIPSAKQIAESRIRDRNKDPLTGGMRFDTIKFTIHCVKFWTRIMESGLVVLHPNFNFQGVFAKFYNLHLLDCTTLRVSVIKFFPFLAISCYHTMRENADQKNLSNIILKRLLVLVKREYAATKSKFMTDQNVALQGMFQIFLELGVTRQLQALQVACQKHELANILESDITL
Sequence of recombinant yeast TBC-DEG (TBCD, TBCE, Arl2) (yeast) (P39937 whole entry, chain 2 of 3, further chain): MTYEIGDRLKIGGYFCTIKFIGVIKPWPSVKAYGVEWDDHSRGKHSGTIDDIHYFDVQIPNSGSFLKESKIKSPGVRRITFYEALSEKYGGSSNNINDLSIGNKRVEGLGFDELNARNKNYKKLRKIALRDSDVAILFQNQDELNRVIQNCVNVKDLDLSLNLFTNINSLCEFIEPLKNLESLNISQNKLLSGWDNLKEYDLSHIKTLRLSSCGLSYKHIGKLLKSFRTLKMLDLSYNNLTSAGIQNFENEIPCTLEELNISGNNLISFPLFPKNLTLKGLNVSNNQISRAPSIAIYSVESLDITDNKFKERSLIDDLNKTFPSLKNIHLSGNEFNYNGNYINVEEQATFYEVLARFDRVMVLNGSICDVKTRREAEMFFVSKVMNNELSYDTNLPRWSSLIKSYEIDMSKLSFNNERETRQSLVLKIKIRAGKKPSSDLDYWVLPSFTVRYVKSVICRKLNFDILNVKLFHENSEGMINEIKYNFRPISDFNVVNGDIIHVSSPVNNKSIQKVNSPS
Sequence of recombinant yeast TBC-DEG (TBCD, TBCE, Arl2) (yeast) (P39110 whole entry, chain 3 of 3, further chain): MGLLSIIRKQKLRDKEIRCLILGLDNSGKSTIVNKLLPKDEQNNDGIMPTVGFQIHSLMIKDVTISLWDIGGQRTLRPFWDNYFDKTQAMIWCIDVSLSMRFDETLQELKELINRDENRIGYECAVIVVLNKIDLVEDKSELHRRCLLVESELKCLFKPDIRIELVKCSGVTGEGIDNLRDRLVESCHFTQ

porcine brain αβ-tubulin heterodimer (from UniProt P02550 1-451; P02554 1-445) (complex)
stoichiometry N: 1
